Test results published in paper PMC6474325, “PPR Protein BFA2 Is Essential for the Accumulation of the atpH/F Transcript in Chloroplasts”.

T1: BFA2 (MBP-BFA2, mature) (Arabidopsis thaliana, UniProt O65567 62-904)
T1 sequence: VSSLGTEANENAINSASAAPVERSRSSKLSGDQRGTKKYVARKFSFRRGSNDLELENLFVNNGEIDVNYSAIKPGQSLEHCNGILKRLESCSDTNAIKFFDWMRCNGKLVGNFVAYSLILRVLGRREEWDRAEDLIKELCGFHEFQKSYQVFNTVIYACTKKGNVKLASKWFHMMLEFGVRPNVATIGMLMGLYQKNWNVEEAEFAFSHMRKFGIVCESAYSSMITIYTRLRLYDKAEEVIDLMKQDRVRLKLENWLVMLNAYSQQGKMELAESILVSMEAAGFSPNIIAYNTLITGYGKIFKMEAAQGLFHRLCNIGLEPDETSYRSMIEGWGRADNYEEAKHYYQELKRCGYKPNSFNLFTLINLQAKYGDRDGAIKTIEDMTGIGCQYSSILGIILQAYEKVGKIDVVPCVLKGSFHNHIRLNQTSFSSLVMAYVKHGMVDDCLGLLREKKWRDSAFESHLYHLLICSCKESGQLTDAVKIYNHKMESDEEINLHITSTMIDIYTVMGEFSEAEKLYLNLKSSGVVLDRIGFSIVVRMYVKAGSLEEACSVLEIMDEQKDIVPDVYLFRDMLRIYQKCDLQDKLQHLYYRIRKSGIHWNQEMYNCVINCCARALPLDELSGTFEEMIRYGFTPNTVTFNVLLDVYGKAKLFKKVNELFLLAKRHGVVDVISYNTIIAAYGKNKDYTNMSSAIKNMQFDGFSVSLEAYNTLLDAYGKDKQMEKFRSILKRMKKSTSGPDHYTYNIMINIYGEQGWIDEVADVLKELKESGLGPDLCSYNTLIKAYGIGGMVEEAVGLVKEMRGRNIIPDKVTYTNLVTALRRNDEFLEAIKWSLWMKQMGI

B1: atpF sRNA (atpF-atpA intergenic) (ssRNA)
RNA: UAUAGGCAUUAUUUUUUUUUCU
B2: ndhA 5' end sRNA (ssRNA)
RNA: UUAUGACGAUACUCGGUAGCAUAGAUAUAA

Legend:
BFA2 (MBP-BFA2, mature) [1] = target: T1, BFA2 (MBP-BFA2, mature); experiment: EMSA; 1 ug tRNA, 2 mM Mg2+; complex detected at protein 3x molar over RNA; 10 mM HEPES pH 7.5, 20 mM KCl, 2 mM MgCl2, 1 mM DTT, 5% glycerol, 1 ug yeast tRNA, 20 C, 30 min; 6% native PAGE with 2.5% glycerol; details: protein: recombinant; tags: MBP (pMAL-c5x); label: 5'-biotin on probe; single strand
BFA2 (MBP-BFA2, mature) [2] = target: T1, BFA2 (MBP-BFA2, mature); experiment: competition; unlabeled ndhA RNA; 1000-fold excess does not affect complex with labeled atpF sRNA; 10 mM HEPES pH 7.5, 20 mM KCl, 2 mM MgCl2, 1 mM DTT, 5% glycerol, 1 ug yeast tRNA, 20 C, 30 min; 6% native PAGE with 2.5% glycerol; details: protein: recombinant; tags: MBP (pMAL-c5x); label: none; single strand

Row | Binder | binding result (BFA2 (MBP-BFA2, mature) [1]) | binding result (BFA2 (MBP-BFA2, mature) [2])
1 | B1 | binds | 
2 | B2 |  | no binding
